Assay results published in US20240025984A1 (FLUX THERAPEUTICS, published 2024).

B1: FireflyLuciferase-P2A-anti-syngap1_FLX00155-Cezanne (other)
chain: MEDAKNIKKGPAPFYPLEDGTAGEQLHKAMKRYALVPGTIAFTDAHIEVDITYAEYFEMSVRLAEAMKRYGLNTNHRIVVCSENSLQFFMPVLGALFIGVAVAPANDIYNERELLNSMGISQPTVVFVSKKGLQKILNVQKKLPIIQKIIIMDSKTDYQGFQSMYTFVTSHLPPGFNEYDFVPESFDRDKTIALIMNSSGSTGLPKGVALPHRTACVRFSHARDPIFGNQIIPDTAILSVVPFHHGFGMFTTLGYLICGFRVVLMYRFEEELFLRSLQDYKIQSALLVPTLFSFFAKSTLIDKYDLSNLHEIASGGAPLSKEVGEAVAKRFHLPGIRQGYGLTETTSAILITPEGDDKPGAVGKVVPFFEAKVVDLDTGKTLGVNQRGELCVRGPMIMSGYVNNPEATNALIDKDGWLHSGDIAYWDEDEHFFIVDRLKSLIKYKGYQVAPAELESILLQHPNIFDAGVAGLPDDDAGELPAAVVVLEHGKTMTEKEIVDYVASQVTTAKKLRGGVVFVDEVPKGLTGKLDARKIREILIKAKKGGKIAVTRLKGSGATNFSLLKQAGDVEENPGPRSGTGSSGQVQLVESGGGLVQPGGSLRLSCAASGFAFGSYDMSWVRQAPGQGPEWVSAITPGGGGTFYAYYSDSVKGRFAISRDNAKNTLTLQMNSLKPDDTAMYYCAKNFYGNGGRGHGTQVTVSSGGGGSGGGGSGGGGSGGGGSQVQLVESGGGLVQPGGSLRLSCAASGFAFGSYDMSWVRQAPGQGPEWVSAITPGGGGTFYAYYSDSVKGRFAISRDNAKNTLTLQMNSLKPDDTAMYYCAKNFYGNGGRGHGTQVTVSSGAPGSGPPSFSEGSGGSRTPEKGFSDREPTRPPRPILQRQDDIVQEKRLSRGISHASSSIVSLARSHVSSNGGGGGSNEHPLEMPICAFQLPDLTVYNEDFRSFIERDLIEQSMLVALEQAGRLNWWVSVDPTSQRLLPLATTGDGNCLLHAASLGMWGFHDRDLMLRKALYALMEKGVEKEALKRRWRWQQTQQNKESGLVYTEDEWQKEWNELIKLASSEPRMHLGTNGANCGGVESSEEPVYESLEEFHVFVLAHVLRRPIVVVADTMLRDSGGEAFAPIPFGGIYLPLEVPASQCHRSPLVLAYDQAHFSALVSMEQKENTKEQAVIPLTDSEYKLLPLHFAVDPGKGWEWGKDDSDNVRLASVILSLEVKLHLLHSYMNVKWIPLSSDAQAPLAQ
B2: FireflyLuciferase-P2A-anti-syngap1_FLX00154-Cezanne (other)
chain: MEDAKNIKKGPAPFYPLEDGTAGEQLHKAMKRYALVPGTIAFTDAHIEVDITYAEYFEMSVRLAEAMKRYGLNTNHRIVVCSENSLQFFMPVLGALFIGVAVAPANDIYNERELLNSMGISQPTVVFVSKKGLQKILNVQKKLPIIQKIIIMDSKTDYQGFQSMYTFVTSHLPPGFNEYDFVPESFDRDKTIALIMNSSGSTGLPKGVALPHRTACVRFSHARDPIFGNQIIPDTAILSVVPFHHGFGMFTTLGYLICGFRVVLMYRFEEELFLRSLQDYKIQSALLVPTLFSFFAKSTLIDKYDLSNLHEIASGGAPLSKEVGEAVAKRFHLPGIRQGYGLTETTSAILITPEGDDKPGAVGKVVPFFEAKVVDLDTGKTLGVNQRGELCVRGPMIMSGYVNNPEATNALIDKDGWLHSGDIAYWDEDEHFFIVDRLKSLIKYKGYQVAPAELESILLQHPNIFDAGVAGLPDDDAGELPAAVVVLEHGKTMTEKEIVDYVASQVTTAKKLRGGVVFVDEVPKGLTGKLDARKIREILIKAKKGGKIAVTRLKGSGATNFSLLKQAGDVEENPGPRSGTGSSGQVQLVESGGGLVQPGGSLRLSCAASGFIFSSYQMAWVRQAPGKGLEWVADINTGGWNTYYADSVKGRFTISRDNAKNTLYLEMNSLKPEDTAVYYCAADRWMVAKIVGGDLDFDSWGQGTQVTVSSGGGGSGGGGSGGGGSGGGGSQVQLVESGGGLVQPGGSLRLSCAASGFIFSSYQMAWVRQAPGKGLEWVADINTGGWNTYYADSVKGRFTISRDNAKNTLYLEMNSLKPEDTAVYYCAADRWMVAKIVGGDLDFDSWGQGTQVTVSSGAPGSGPPSFSEGSGGSRTPEKGFSDREPTRPPRPILQRQDDIVQEKRLSRGISHASSSIVSLARSHVSSNGGGGGSNEHPLEMPICAFQLPDLTVYNEDFRSFIERDLIEQSMLVALEQAGRLNWWVSVDPTSQRLLPLATTGDGNCLLHAASLGMWGFHDRDLMLRKALYALMEKGVEKEALKRRWRWQQTQQNKESGLVYTEDEWQKEWNELIKLASSEPRMHLGTNGANCGGVESSEEPVYESLEEFHVFVLAHVLRRPIVVVADTMLRDSGGEAFAPIPFGGIYLPLEVPASQCHRSPLVLAYDQAHFSALVSMEQKENTKEQAVIPLTDSEYKLLPLHFAVDPGKGWEWGKDDSDNVRLASVILSLEVKLHLLHSYMNVKWIPLSSDAQAPLAQ
B3: FLX00152 (VHH)
VHH: QVQLVESGGGLVQPGGSLRLSCAASGFSFSNFPMMWVRQAPGKGREWVADINQDGRNTYYADSVKGRFTISRDNAKTTVYLQMNNLNPEDTAVYYCQAIRTTTHFDSWGQGTQVTVSS
notes: Camelid VHH from a phage library; also called anti-SynGAP VHH FLX00152; VHH
B4: FLX00153 (VHH)
VHH: QLQLVESGGGLVQPGESLRLSCAASGFTFSNYRMYWVRMAPGKGLEWVSDIDRSGTYTYYADSVKGRFAISRDNAKNTVYLQMNSLKPEDTAVYYCAADRRLIVDLTPEVYDHWGQGTQVTVSS
notes: Camelid VHH from a phage library; also called anti-SynGAP VHH FLX00153; VHH
B5: FLX00154 (VHH)
VHH: QVQLVESGGGLVQPGGSLRLSCAASGFIFSSYQMAWVRQAPGKGLEWVADINTGGWNTYYADSVKGRFTISRDNAKNTLYLEMNSLKPEDTAVYYCAADRWMVAKIVGGDLDFDSWGQGTQVTVSS
notes: Camelid VHH from a phage library; also called anti-SynGAP VHH FLX00154; VHH
B6: FLX00155 (VHH)
VHH: QVQLVESGGGLVQPGGSLRLSCAASGFAFGSYDMSWVRQAPGQGPEWVSAITPGGGGTFYAYYSDSVKGRFAISRDNAKNTLTLQMNSLKPDDTAMYYCAKNFYGNGGRGHGTQVTVSS
notes: Camelid VHH from a phage library; also called anti-SynGAP VHH FLX00155; VHH
B7: FLX00156 (VHH)
VHH: QVQLVESGGGLVQPGGSLRLACAASGFTFGTHAMHWVRWAPGKGFEWVSTISSGGGGTRYADSVKGRFTISRDNAKNTVYLQMDNLKPEDTAVYYCNSPSNIANDNWGQGTQVTVSS
notes: Camelid VHH from a phage library; also called anti-SynGAP VHH FLX00156; VHH
B8: FLX00157 (VHH)
VHH: QVQLVESGGGLVQAGASLRLSCAASERTFGHYAMGWFRQAPGKEREFVATISWKGGTTGYAHSVKGRFTISRDSAKNMVYLQMNSLKPEDTAVYYCAARNTMSGSMSSSAYPYWGQGTQVTVSS
notes: Camelid VHH from a phage library; also called anti-SynGAP VHH FLX00157; VHH

Target: T1, SYNGAP1-nanoluc-alfa-tag-fusion
T1 chain: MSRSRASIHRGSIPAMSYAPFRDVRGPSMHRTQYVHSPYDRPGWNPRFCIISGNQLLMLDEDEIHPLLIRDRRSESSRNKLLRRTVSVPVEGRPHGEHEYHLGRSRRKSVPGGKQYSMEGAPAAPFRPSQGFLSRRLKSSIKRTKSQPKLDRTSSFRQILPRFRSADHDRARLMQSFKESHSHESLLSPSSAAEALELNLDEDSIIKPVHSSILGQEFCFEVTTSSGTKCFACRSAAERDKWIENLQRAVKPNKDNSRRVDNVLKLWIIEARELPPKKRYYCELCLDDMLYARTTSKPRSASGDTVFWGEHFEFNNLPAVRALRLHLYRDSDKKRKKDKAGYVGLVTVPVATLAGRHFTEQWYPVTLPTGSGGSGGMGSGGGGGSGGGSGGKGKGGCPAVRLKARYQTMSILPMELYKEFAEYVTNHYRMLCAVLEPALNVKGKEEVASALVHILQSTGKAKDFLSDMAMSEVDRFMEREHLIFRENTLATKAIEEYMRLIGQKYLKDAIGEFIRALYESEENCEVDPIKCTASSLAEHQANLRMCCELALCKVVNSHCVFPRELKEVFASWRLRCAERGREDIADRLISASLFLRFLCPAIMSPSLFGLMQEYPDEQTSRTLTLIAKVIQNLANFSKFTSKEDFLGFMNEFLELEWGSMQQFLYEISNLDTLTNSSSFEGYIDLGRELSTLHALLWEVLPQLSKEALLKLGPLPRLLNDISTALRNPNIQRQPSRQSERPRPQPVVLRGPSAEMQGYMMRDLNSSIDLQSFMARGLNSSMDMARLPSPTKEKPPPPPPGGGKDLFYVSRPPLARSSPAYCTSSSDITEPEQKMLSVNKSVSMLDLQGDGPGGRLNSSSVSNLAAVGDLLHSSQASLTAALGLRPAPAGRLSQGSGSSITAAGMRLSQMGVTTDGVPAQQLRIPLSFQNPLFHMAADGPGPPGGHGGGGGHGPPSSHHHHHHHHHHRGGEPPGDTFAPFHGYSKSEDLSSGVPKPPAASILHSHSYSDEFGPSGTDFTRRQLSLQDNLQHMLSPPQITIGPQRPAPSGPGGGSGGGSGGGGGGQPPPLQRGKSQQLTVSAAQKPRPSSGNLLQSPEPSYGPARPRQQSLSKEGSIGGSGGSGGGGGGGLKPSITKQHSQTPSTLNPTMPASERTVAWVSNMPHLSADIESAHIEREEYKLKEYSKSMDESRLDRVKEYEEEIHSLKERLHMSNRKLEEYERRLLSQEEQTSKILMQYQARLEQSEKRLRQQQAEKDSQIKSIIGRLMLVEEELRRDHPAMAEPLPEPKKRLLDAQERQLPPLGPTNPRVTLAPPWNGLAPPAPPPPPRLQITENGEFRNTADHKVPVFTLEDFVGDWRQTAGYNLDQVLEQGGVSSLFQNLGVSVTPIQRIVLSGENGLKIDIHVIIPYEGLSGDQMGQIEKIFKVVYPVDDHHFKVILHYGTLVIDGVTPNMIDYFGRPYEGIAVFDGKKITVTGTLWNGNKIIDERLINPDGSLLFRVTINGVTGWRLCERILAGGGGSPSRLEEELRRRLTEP
Test: cell-based or functional assay

Q: For B1, which “increase in SYNGAP1 expression over the control” value is on record?
A: The value was at least 2 fold.

Q: B2 was tested. Which “increase in SYNGAP1 expression over the control” value did it give?
A: The value was at least 2 fold.

target: T2, His-SynGAP-EC[1186-1277] (Homo sapiens (Human), UniProt Q96PV0 956-1305); test: phage display panning, then polyclonal and monoclonal phage ELISA on plate-coated antigen (4 ug/ml)
T2 construct: Expressed in E. coli, purified on nickel resin, 15.75 kDa; also called SYNGAP1 fragment with N-terminal 6His tag
T2 sequence: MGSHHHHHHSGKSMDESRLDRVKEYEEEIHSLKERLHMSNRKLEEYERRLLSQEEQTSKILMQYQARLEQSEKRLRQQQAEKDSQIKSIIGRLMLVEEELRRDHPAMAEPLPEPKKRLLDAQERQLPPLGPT
Protocol: The concentration of the eluted phages was determined. First, the eluted phages were added to E. Coli TG1. TG1 was poured onto a plate and cultured upside down. The PFU was calculated based on the number of plaques (i.e. dead TG1) on the plate. The eluted phages were added to TG1 followed infection by helper phage and cultured. Phages were precipitated with PEG/NaCl and subsequently resuspended. The phages were screened using a polyclonal ELISA and a monoclonal ELISA. […] ([…]) or control buffer. The coated plate was washed, blocked, washed, and incubated with the amplified eluted phages. Subsequently the plate was washed and incubated with anti-phage-HRP antibody, washed, and incubated with TMB followed by HCL. The result readings were taken at 450 nm. The monoclonal phase ELISA was carried out according to the following. Single TG1 clones randomly selected from plates (described above) were cultured with helper phage. A total of 192 clones from round 3+96 clones from round 4+96 clones from round 5 were selected. The clones were centrifuged and the supernatant (i.e. the phages) were collected. […] The plate was washed, blocked, washed, incubated with the selected phages, washed, incubated with anti-phage-HRP antibody, washed, and incubated with TMB followed by HCL. The results were read of 450 nm.

Q: Does B3 bind?
A: Result: binds

Q: Does B4 bind?
A: Result: binds

Q: Does B5 bind?
A: Result: binds

Q: Does B6 bind?
A: Result: binds

Q: Does B7 bind?
A: Result: binds

Q: Does B8 bind?
A: Result: binds
